Measured values as given in article PMC12598741 (2025).

How the values were obtained:
Assay in all cases: BLI
17C7 x L15 hIgG4 = target: 17C7 x L15 hIgG4
L15 = target: L15
h11A4 x L15-5 hIgG4 = target: h11A4 x L15-5 hIgG4
h11A4 x L15-3 hIgG4 = target: h11A4 x L15-3 hIgG4
h11A4 x L15-2 hIgG4 = target: h11A4 x L15-2 hIgG4
h11A4 x L15-4 hIgG4 = target: h11A4 x L15-4 hIgG4
h11A4 x L15-1 hIgG4 = target: h11A4 x L15-1 hIgG4

B1: mouse CD16 (mCD16), his-tagged (receptor)
chain: ALPKAVVKLDPPWIQVLKEDMVTLMCEGTHNPGNSSTQWFHNGRSIRSQVQASYTFKATVNDSGEYRCQMEQTRLSDPVDLGVISDWLLLQTPQRVFLEGETITLRCHSWRNKLLNRISFFHNEKSVRYHHYKSNFSIPKANHSHSGDYYCKGSLGSTQHQSKPVTITVQDPATTSSISLVWYHT
17C7 x L15 hIgG4
  Kd: 16.3 nM
L15
  Kd: 126 nM
h11A4 x L15-5 hIgG4
  Kd: 197 nM
h11A4 x L15-3 hIgG4
  Kd: 218 nM
h11A4 x L15-2 hIgG4
  Kd: 119 nM
h11A4 x L15-4 hIgG4
  Kd: 211 nM
h11A4 x L15-1 hIgG4
  Kd: 163 nM
